Experimental data published in US20140112915A1 (Novartis, published 2014).
Like-named read-outs stand apart in the source and are kept apart here.

T1: Native human IL-18 (human, UniProt Q14116 37-193)
T1 sequence: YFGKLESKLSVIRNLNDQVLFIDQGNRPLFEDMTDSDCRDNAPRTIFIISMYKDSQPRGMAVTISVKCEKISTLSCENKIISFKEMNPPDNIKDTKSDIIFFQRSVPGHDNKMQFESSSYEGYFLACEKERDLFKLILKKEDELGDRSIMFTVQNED

T2: Recombinant human IL-18 (human, UniProt Q14116 37-193)
T2 sequence: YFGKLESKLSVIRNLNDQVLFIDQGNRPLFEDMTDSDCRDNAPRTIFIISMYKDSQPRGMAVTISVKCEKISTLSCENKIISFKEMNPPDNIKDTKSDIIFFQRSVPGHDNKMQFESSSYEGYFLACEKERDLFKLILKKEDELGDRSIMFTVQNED

T3: Recombinant cynomolgus IL-18 (cynomolgus monkey, UniProt Q14116 37-193 (human entry))
T3 chain: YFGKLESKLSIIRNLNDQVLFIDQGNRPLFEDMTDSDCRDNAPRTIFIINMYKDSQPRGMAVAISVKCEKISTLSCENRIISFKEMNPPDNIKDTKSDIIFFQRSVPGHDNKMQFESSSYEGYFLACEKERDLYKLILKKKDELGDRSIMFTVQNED


Tests used:
Assay in all cases: cell-based or functional assay
Native human IL-18 [1] = biological target: T1, Native human IL-18
Recombinant human IL-18 [2] = biological target: T2, Recombinant human IL-18
Native human IL-18 [3] = biological target: T1, Native human IL-18; remark: listed apart in the source
Recombinant human IL-18 [4] = biological target: T2, Recombinant human IL-18; remark: listed apart in the source
Native human IL-18 [5] = biological target: T1, Native human IL-18; remark: listed apart in the source
[6] = biological target: T3, Recombinant cynomolgus IL-18
Recombinant human IL-18 [7] = biological target: T2, Recombinant human IL-18; remark: listed apart in the source

Binder | IC50, inhibition of IFN-γ release, PBMC, Native IL-18 (LPS/IL-12) (Native human IL-18 [1]) [nM] | IC50, inhibition of IFN-γ release, KG-1 cells, Hu IL-18 (1 nM) (Recombinant human IL-18 [2]) [nM] | IC50, inhibition of IFN-γ release, human whole blood, LPS/IL-12 (native IL-18) (Native human IL-18 [3]) [nM] | IC50, inhibition of IFN-γ release, human whole blood, recombinant human IL-18 (7 nM) (Recombinant human IL-18 [4]) [nM] | IC50, inhibition of IFN-γ release, PBMC, Native IL-18 (LPS/IL-12) (Native human IL-18 [5]) [nM] | IC50, inhibition of IFN-γ release, KG-1 cells, Cyno IL-18 [6] [nM] | IC50, inhibition of IFN-γ release, KG-1 cells, Hu IL-18 (1 nM) (Recombinant human IL-18 [7]) [nM] | IC50, inhibition of IFN-γ release, PBMC, Hu IL-18 (recombinant) (Recombinant human IL-18 [7]) [nM]
MOR9464_N30Q (antibody, human IgG1, lambda, L234A L235A, V domains shown) VH: EVQLVQSGAEVKKPGSSVKVSCKASGGTFQSYAISWVRQAPGQGLEWMGNIIPMTGQTYYAQKFQGRVTITADESTSTAYMELSSLRSEDTAVYYCARAAYHPLVFDNWGQGTLVTVSS VL: DIVLTQPPSVSGAPGQRVTISCSGSSSNIGNHYVNWYQQLPGTAPKLLIYRNNHRPSGVPDRFSGSKSGTSASLAITGLQSEDEADYYCQSWDYSGFSTVFGGGTKLTVLG | 0.07 | 0.22 | 13.4 | 8.1 |  |  |  | 
MOR10222_E1Q_N30S_M54Y (antibody, human IgG1, lambda, L234A L235A, V domains shown) VH: QVQLVQSGAEVKKPGSSVKVSCKASGGTFSSYAISWVRQAPGQGLEWMGNIIPYTGQTYYAQKFQGRVTITADESTSTAYMELSSLRSEDTAVYYCARAAYHPLVFDNWGQGTLVTVSS VL: QSVLTQPPSASGTPGQRVTISCSGSSSNIGNHYVNWYQQLPGTAPKLLIYRNNHRPSGVPDRFSGSKSGTSASLAISGLQSEDEADYYCQSWDYSGFSTVFGGGTKLTVLG | 0.09 | 4.8 | 18.8 | 34.3 |  |  |  | 
MOR10222_E1Q_N30S_M54N (antibody, human IgG1, lambda, L234A L235A, V domains shown) VH: QVQLVQSGAEVKKPGSSVKVSCKASGGTFSSYAISWVRQAPGQGLEWMGNIIPNTGQTYYAQKFQGRVTITADESTSTAYMELSSLRSEDTAVYYCARAAYHPLVFDNWGQGTLVTVSS VL: QSVLTQPPSASGTPGQRVTISCSGSSSNIGNHYVNWYQQLPGTAPKLLIYRNNHRPSGVPDRFSGSKSGTSASLAISGLQSEDEADYYCQSWDYSGFSTVFGGGTKLTVLG | 0.03 | 5.2 | 16.1 | 46.5 |  |  |  | 
MOR9464_N30T (antibody, human IgG1, lambda, L234A L235A, V domains shown) VH: EVQLVQSGAEVKKPGSSVKVSCKASGGTFTSYAISWVRQAPGQGLEWMGNIIPMTGQTYYAQKFQGRVTITADESTSTAYMELSSLRSEDTAVYYCARAAYHPLVFDNWGQGTLVTVSS VL: DIVLTQPPSVSGAPGQRVTISCSGSSSNIGNHYVNWYQQLPGTAPKLLIYRNNHRPSGVPDRFSGSKSGTSASLAITGLQSEDEADYYCQSWDYSGFSTVFGGGTKLTVLG | 0.19 | 0.31 | 20.8 | 12.5 |  |  |  | 
MOR9464_N30H (antibody, human IgG1, lambda, L234A L235A, V domains shown) VH: EVQLVQSGAEVKKPGSSVKVSCKASGGTFHSYAISWVRQAPGQGLEWMGNIIPMTGQTYYAQKFQGRVTITADESTSTAYMELSSLRSEDTAVYYCARAAYHPLVFDNWGQGTLVTVSS VL: DIVLTQPPSVSGAPGQRVTISCSGSSSNIGNHYVNWYQQLPGTAPKLLIYRNNHRPSGVPDRFSGSKSGTSASLAITGLQSEDEADYYCQSWDYSGFSTVFGGGTKLTVLG | 0.1 | 0.23 | 23 | 11.9 |  |  |  | 
Recombinant human IL-18 Binding Protein-IgG1 Fc (Fc fusion, UniProt O95998 31-194, looked up, not shown: a dimerising Fc or GST) TPVSQTTTAATASVRSTKDPCPSQPPVFPAAKQCPALEVTWPEVEVPLNGTLSLSCVACSRFPNFSILYWLGNGSFIEHLPGRLWEGSTSRERGSTGTQLCKALVLEQLTPALHSTNFSCVLVDPEQVVQRHVVLAQLWAGLRATLPPTQEALPSSHSSPQQQG |  |  | 12.1 | 5.7 | 0.17 | 0.4 | 0.3 | 1
